Reference: paper PMC7896290

Legend:
[1] = target: anti-DNP wild-type human monoclonal IgG1 (human); assay: native MS
[2] = target: human monoclonal IgG4 (human); assay: native MS
[3] = target: human monoclonal IgG2 (human); assay: native MS
[4] = target: anti-DNP IgG1-RGY (human IgG1 with E345R, E430G, S440Y) (human); assay: high-speed atomic force microscopy

| stoichiometry N [1] [SpA per IgG] | stoichiometry N [2] [SpA per IgG] | stoichiometry N [3] [SpA per IgG] | Substance | stoichiometry N (SpA-B per IgG) [1] | reduction of IgG1-RGY hexamers [4] [%] |
| --- | --- | --- | --- | --- | --- |
| 1 | 1 | 1 | staphylococcal protein A, soluble construct containing all five Ig-binding domains (domain or fragment) | – | – |
| – | – | – | SpA-B domain wild type (single B-domain of staphylococcal protein A) (domain or fragment) | 2 | 50 |
